# From IntAct's records for PubMed 30510991
# B1: Forkhead box protein P3 (Homo sapiens), Q9BZS1 (parent)
# chain: MPNPRPGKPSAPSLALGPSPGASPSWRAAPKASDLLGARGPGGTFQGRDLRGGAHASSSSLNPMPPSQLQLPTLPLVMVAPSGARLGPLPHLQALLQDRPHFMHQLSTVDAHARTPVLQVHPLESPAMISLTPPTTATGVFSLKARPGLPPGINVASLEWVSREPALLCTFPNPSAPRKDSTLSAVPQSSYPLLANGVCKWPGCEKVFEEPEDFLKHCQADHLLDEKGRAQCLLQREMVQSLEQQLVLEKEKLSAMQAHLAGKMALTKASSVASSDKGSCCIVAAGSQGPVVPAWSGPREAPDSLFAVRRHLWGSHGNSTFPEFLHNMDYFKFHNMRPPFTYATLIRWAILEAPEKQRTLNEIYHWFTRMFAFFRNHPATWKNAIRHNLSLHKCFVRVESEKGAVWTVDELEFRKKRSQRPSRCSNPTPGP
# Variants of: B1
# Details: with ezh2_human EZH2, Q15910
# ezh2_human EZH2, Q15910, sequence (Q15910 whole entry, looked up): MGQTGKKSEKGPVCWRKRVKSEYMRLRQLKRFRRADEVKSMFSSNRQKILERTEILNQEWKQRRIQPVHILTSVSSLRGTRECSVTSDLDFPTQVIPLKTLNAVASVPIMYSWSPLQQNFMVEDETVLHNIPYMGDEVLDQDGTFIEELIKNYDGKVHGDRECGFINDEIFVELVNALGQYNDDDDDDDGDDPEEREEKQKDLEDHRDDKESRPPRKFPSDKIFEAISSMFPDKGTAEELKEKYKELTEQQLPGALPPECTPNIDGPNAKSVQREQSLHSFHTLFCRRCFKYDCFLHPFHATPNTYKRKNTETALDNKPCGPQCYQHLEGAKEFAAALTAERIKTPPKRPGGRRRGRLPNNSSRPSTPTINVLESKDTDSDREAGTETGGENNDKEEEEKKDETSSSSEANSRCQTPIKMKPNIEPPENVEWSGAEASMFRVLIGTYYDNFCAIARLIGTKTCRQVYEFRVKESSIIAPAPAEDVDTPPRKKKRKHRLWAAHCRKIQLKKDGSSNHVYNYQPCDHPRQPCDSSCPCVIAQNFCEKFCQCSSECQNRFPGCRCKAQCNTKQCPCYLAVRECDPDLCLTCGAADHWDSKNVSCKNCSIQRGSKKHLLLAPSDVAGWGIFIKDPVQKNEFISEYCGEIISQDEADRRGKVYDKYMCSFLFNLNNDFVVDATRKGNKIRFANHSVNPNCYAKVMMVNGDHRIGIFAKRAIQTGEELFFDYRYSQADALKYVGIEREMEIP
row,effect of a mutation on the interaction,Variant
1,decreasing interaction,MPNPRPGKPSAPSLALGPSPGASPSWRAAPKASDLLGARGPGGTFQGRDLRGGAHASSSSLNPMPPSQLQLPTLPLVMVAPSGARLGPLPHLQALLQDRPHFMHQLSTVDAHARTPVLQVHPLESPAMISLTPPTTATGVFSLKARPGLPPGINVASLEWVSREPALLCTFPNPSAPRKDSTLSAVPQSSYPLLANGVCKWPGCEKVFEEPEDFLKHCQADHLLDEKGRAQGLLQREMVQSLEQQLVLEKEKLSAMQAHLAGKMALTKASSVASSDKGSCCIVAAGSQGPVVPAWSGPREAPDSLFAVRRHLWGSHGNSTFPEFLHNMDYFKFHNMRPPFTYATLIRWAILEAPEKQRTLNEIYHWFTRMFAFFRNHPATWKNAIRHNLSLHKCFVRVESEKGAVWTVDELEFRKKRSQRPSRCSNPTPGP [C232G]
